# Reference: US8816055 (DYAX, dated 2014)
# Residue numbers refer to the chain shown, from its start.
# B1: X115-F02 (Fab, V domains shown)
# VH: EVQLLESGGGLVQPGGSLRLSCAASGFTFSHYIMMWVRQAPGKGLEWVSGIYSSGGITVYADSVKGRFTISRDNSKNTLYLQMNSLRAEDTAVYYCAYRRIGVPRRDEFDIWGQGTMVTVSS
# VL: DIQMTQSPSTLSASVGDRVTITCRASQSISSWLAWYQQKPGKAPKLLIYKASTLESGVPSRFSGSGSGTEFTLTISSLQPDDFATYYCQQYNTYWTFGQGTKVEIK
# notes: also called 559A-X115-F02; 559A-X0115-F02
# B2: X115-G04 (antibody, V domains shown)
# VH: B1 VH with I101T
# VL: B1 VL
# notes: also called 559A-X115-G04; 559A-X0115-G04
# B3: X115-A03 (antibody, V domains shown)
# VH: B1 VH with Y98W, E108S, I111M
# VL: B1 VL
# notes: also called 559A-X115-A03; 559A-X0115-A03
# B4: X115-D01 (antibody, V domains shown)
# VH: EVQLLESGGGLVQPGGSLRLSCAASGFTFSIYSMHWVRQAPGKGLEWVSSIYPSRGMTWYADSVKGRFTISRDNSKNTLYLQMNSLRAEDTAVYYCAYRRTGIPRRDAFDIWGQGTMVTVSS
# VL: B1 VL
# notes: also called 559A-X115-D01; 559A-X0115-D01
# B5: M35-G04 (Fab, V domains shown)
# VH: EVQLLESGGGLVQPGGSLRLSCAASGFTFSYYHMSWVRQAPGKGLEWVSVISPSGGSTKYADSVKGRFTISRDNSKNTLYLQMNSLRAEDTAVYYCARGGSSDYAWGSYRRPYYFDYWGQGTLVTVSS
# VL: DIQMTQSPATLSLSPGERATLSCRASQSVSSYLAWYQQKPGQAPRLLIYDASNRATGIPARFSGSGSGTDFTLTISSLEPEDFAVYYCQQRSNWPRGFTFGPGTKVDIK
# notes: also called 559A-M35-G04; 559A-M0035-G04
# B6: M29-D09 (Fab, V domains shown)
# VH: EVQLLESGGGLVQPGGSLRLSCAASGFTFSWYTMVWVRQAPGKGLEWVSYIYPSGGATFYADSVKGRFTISRDNSKNTLYLQMNSLRAEDTAVYYCAMGSYDYIWGFYSDHWGQGTLVTVSS
# VL: QSALTQPPTVSVSPGQTARITCSGNKLGDKYVAWYQQKPGQSPMLVIYQDTKRPSRVSERFSGSNSANTATLSISGTQALDEADYYCQAWDSSIVIFGGGTRLTVL
# notes: also called 559A-M29-D09 (sFab); 559A-M0029-D09
# B7: X101-A01 (antibody, V domains shown)
# VH: EVQLLESGGGLVQPGGSLRLSCAASGFTFSHYLMTWVRQAPGKGLEWVSYISPSGGHTIYADSVKGRFTISRDNSKNTLYLQMNSLRAEDTAVYYCARVARGIAARSRTSYFDYWGQGTLVTVSS
# VL: EIVLTQSPGTLSLSPGERATLSCRTSQFVNSNYLAWYQQKPGQAPRLLIYGASSRATGIPDRFSGSGSGTDFTLTISRLEPEDFAVYYCQQSSRTPWTFGQGTKVEIK
# notes: also called 559A-X0101-A01
# B8: X115-B07 (antibody, V domains shown)
# VH: B7 VH with R98M, A100G, R101Q, A104R, A105G, D113A, Y114Q
# VL: B7 VL
# notes: also called 559A-X115-B07; 559A-X0115-B07
# B9: M6-D09 (Fab, V domains shown)
# VH: EVQLLESGGGLVQPGGSLRLSCAASGFTFSFYYMVWVRQAPGKGLEWVSVIYPSGGITVYADSVKGRFTISRDNSKNTLYLQMNSLRAEDTAVYYCARDKWAVMPPYYYYAMDVWGQGTTVTVSS
# VL: DIQMTQSPSSLSASVGDRVTITCRASQSIRNYLNWYQQKPGKAPNLLIYAASTLQSGVPARFSGSGSGTDFTLTISSLQPEDFATYYCQQLSGYPHTFGQGTKLEIK
# notes: also called M06-D09; 559A-M06-D09
# B10: M145-D11 (Fab, V domains shown)
# VH: EVQLLESGGGLVQPGGSLRLSCAASGFTFSHYRMSWVRQAPGKGLEWVSSIYPSGGRTVYADSVKGRFTISRDNSKNTLYLQMNSLRAEDTAVYYCAKDKFEWRLLFRGIGNDAFDIWGQGTMVTVSS
# VL: QSVLTQPPSVSVSPGQTASITCSGDKLGDKYTSWYQQRPGQSPVLVIYQDIKRPSGIPERFSGSNSGNTATLTISGTQAMDEADYYCQAWDSPNARVFGSGTKVTVL
# notes: also called 559A-M145-D11 (sFab); 559A-M0145-D11
# B11: M28-D02 (Fab, V domains shown)
# VH: EVQLLESGGGLVQPGGSLRLSCAASGFTFSWYPMQWVRQAPGKGLEWVSYIYPSGGGTDYADSVKGRFTISRDNSKNTLYLQMNSLRAEDTATYYCATSSGWLGDAFDIWGQGTMVTVSS
# VL: DIQMTQSPSSLSASEGDMVTITCRTSRRIGTYLNWYQQKPGKAPKLLIYGASSLQSGVPSRFSGSGSGTDFTLTVSSLQPEDVGTYYCQQSFSSPWTFGPGTKVEIK
# Molecular target: T1, pKal catalytic domain Mutant 2 (human, UniProt P03952 391-638, limits assumed)
# T1 construct: catalytic domain with His tag from Pichia pastoris
# Assay: Ki,app, enzyme inhibition
# T1 sequence (P03952 other isoform, or with tags, fused parts or gaps mutant limits assumed): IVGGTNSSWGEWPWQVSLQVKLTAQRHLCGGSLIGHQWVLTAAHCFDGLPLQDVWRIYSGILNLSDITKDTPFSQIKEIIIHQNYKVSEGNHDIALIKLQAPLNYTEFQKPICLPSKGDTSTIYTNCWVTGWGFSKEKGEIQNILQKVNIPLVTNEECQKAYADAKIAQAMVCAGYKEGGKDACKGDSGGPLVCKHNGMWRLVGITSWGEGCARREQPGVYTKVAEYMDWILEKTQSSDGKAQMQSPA
row,Ki [pM],Binder
1,5900,B1
2,2200,B2
3,3700,B3
4,2500,B4
5,1100,B5
6,340,B6
7,20000,B7
8,47000,B8
9,13500,B9
10,100,B10

# Molecular target: T2, pKal catalytic domain Mutant 1 (human, UniProt P03952 391-638, limits assumed)
# T2 construct: catalytic domain with His tag from Pichia pastoris
# Assay: Ki,app, enzyme inhibition
# T2 sequence (P03952 other isoform, or with tags, fused parts or gaps mutant limits assumed): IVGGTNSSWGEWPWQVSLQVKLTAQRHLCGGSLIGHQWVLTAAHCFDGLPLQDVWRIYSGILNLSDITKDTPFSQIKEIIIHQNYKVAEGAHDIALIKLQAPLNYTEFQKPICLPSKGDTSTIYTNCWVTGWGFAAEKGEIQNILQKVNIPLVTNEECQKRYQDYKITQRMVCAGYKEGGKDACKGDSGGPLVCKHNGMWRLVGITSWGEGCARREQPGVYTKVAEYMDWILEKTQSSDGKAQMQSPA
row,Ki [pM],Binder
1,140,B1
2,400,B2
3,230,B3
4,260,B4
5,90,B5
6,270,B6
7,14000,B7
8,4700,B8
9,3400,B9
10,230,B10

# Molecular target: pKal catalytic domain Mutant 4 (human, UniProt P03952 391-638)
# Assay: Ki,app, enzyme inhibition
# pKal catalytic domain Mutant 4, sequence (P03952 other isoform, or with tags, fused parts or gaps mutant): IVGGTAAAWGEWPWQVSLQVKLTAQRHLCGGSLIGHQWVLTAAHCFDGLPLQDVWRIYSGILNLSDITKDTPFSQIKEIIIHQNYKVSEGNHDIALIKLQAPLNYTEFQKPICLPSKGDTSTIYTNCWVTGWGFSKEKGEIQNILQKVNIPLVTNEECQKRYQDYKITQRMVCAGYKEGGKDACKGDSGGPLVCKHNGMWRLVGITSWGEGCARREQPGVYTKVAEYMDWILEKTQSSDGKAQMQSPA
row,Ki [pM],Binder
1,100,B1
2,300,B2
3,130,B3
4,120,B4
5,800,B5
6,390,B6
7,250,B7
8,140,B8
9,2900,B9
10,210,B10

# Molecular target: T3, human plasma kallikrein (active form) (human, UniProt P03952 20-390; P03952 391-638)
# T3 construct: two disulfide linked chains; biotinylated in the ELISA; also called pKal; hpKal
# Assay: ELISA, biotinylated pKal / streptavidin background
# Source text: Abbreviations used: "T/B" is the ELISA signal obtained using of the "target" (biotinylated plasma kallikrein) divided by the ELISA signal of the "background" (streptavidin); both of which were coated on microtiter plates. "nd" is not determined. The symbol "q" refers to the amber suppressible stop codon (TAG), which is translated as glutamine (Q) in strains of E. coli such as the TG1 cells that were used to express the Fab fragments.
# T3 sequence (P03952 20-390, chain 1 of 2): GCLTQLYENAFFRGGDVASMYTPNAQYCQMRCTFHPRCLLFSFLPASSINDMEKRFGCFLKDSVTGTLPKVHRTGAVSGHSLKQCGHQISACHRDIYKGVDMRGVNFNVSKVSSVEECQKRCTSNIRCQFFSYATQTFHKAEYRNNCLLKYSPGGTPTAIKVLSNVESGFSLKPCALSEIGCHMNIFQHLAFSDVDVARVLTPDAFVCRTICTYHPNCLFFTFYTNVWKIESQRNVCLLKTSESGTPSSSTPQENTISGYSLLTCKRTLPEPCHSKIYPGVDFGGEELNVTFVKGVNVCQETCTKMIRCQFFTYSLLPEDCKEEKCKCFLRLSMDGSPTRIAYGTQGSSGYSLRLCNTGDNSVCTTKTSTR
# T3 sequence (P03952 391-638, chain 2 of 2): as the sequence (P03952 other isoform, or with tags, fused parts or gaps mutant) above, with A6N, A7S, A8S counted along it
row,ELISA (T/B),Binder
1,3.7,B11
